The values below come from patent US20020081280A1.

Assay [1] concerns the target coxsackievirus and adenovirus receptor (CAR) on human cells (human) (UniProt P78310). The experiment in a line: cell-based or functional assay.
The target in assay [2] is cellular integrins on HUVEC cells. The experiment in a line: 125I-Ad5lucRGD binding to HUVEC cells at 4 °C, penton base at 100 µg/ml; competitor Ad5lucRGD.

Several values for one entry are separate records, joined by “and”; a condition that tells them apart may be missing. Equal entries are not always repeated.

Sequence of UniProt P78310 (P78310 20-365): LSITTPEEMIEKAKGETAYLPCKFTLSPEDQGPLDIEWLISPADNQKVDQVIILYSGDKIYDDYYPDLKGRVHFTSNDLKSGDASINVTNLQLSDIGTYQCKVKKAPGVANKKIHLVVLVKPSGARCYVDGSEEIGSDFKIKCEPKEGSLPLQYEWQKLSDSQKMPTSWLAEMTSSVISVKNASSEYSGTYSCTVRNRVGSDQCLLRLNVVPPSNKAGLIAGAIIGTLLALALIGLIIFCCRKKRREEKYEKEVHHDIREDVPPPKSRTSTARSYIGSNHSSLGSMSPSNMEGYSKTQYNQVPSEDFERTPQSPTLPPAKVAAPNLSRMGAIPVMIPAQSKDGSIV

In the case of “AdCMVLuc virions (E1-deleted Ad5 vector with unmodified wild-type fibers) (from UniProt P11818 1-581)”, in assay [1], the blockade of luciferase gene transfer by knob competition, HeLa and SCCHN cell lines (FaDu, SCC-4, SCC-25) was over 90%; the gene transfer to SKOV3.ipl cells blocked by fiber knob was over 90%; the luciferase activity in 293 cells blocked by recombinant knob protein (100 µg/ml) lay within 85 to 93%; the luciferase activity in SKOV3.ipl cells blocked by excess fiber knob is 82% and 91%. For the same substance, in assay [1], the luciferase activity in ovarian cancer ascites cells blocked by excess fiber knob is 90%; the reduction of luciferase activity in CaOV-3 cells by fiber knob blockade, dose 3x10^6 PFU came to 55%; the reduction of luciferase activity in UCI-101 cells by the fiber knob block was 94% and 97%.

Take “recombinant human adenovirus serotype 2 penton base protein, expressed in Sf9 cells (from UniProt P03276 1-571)”: the percent decrease of bound virus radioactivity in assay [2] was 25%.
